Assay results from article PMC7442695 (Nature, 2020).

B1: C101 monoclonal antibody (IgG) (antibody, V domains shown)
VH: QVQLVESGGGLIQPGGSLRLSCAASGFIVSSNYMSWVRQAPGKGLEWVSVIYSGGSTFYTDSVKGRFTISRDNSKNTLYLQMNSLRAEDTAVYYCVRDYGDFYFDYWGQGTLVTVSS
VL: EIVLTQSPGTLSLSPGERATLSCRASQSVSSSYLAWYQQKPGQAPRLLIYGASSRATGIPDRFSGGGSETDFTLTISRLEPEDCAVYYCQQYGSSPRTFGQGTKVEIK
B2: C121 monoclonal antibody (IgG) (antibody, V domains shown)
VH: not shown
VL: QSALTQPASVSGSPGQSITISCTGTSSDVGSYNLVSWYQQHPGKAPKLMIYEGSKRPSGVSNRFSGSKSGNTASLTISGLQAEDEADYYCCSYAGSSTLVFGGGTKLTVL
B3: C009 monoclonal antibody (IgG) (antibody, V domains shown)
VH: not shown
VL: QSALTQPPSASGSPGQSVTISCTGTSSDVGGYNYVSWYQQHPGKAPKLMIYEVSKRPSGVPDRFSGSKSGNTASLTVSGLQAEDEAEYYCSSDAGSNNVVFGGGTKLTVL
B4: C002 monoclonal antibody (IgG) (antibody, V domains shown)
VH: EVQLVESGGGVVQPGRSLRLSCAASGFTFSIYGMHWVRQAPGKGLEWVAVISYDGSNKYYADSVKGRFTISRDNSKNTLYLQMNSLRAEDTAVYYCAKEGRPSDIVVVVAFDYWGQGTLVTVSS
VL: not shown
B5: C119 monoclonal antibody (IgG) (antibody, V domains shown)
VH: QVQLVQSGAEVKKPGASVKVSCKASGYTFTSYYMHWVRQAPGQGLEWMGIINPSGGSTSYAQKLQGRVTMTRDTSTSTVYMELSSLRSEDTAVYYCARANHETTMDTYYYYYYMDVWGKGTTVTVSS
VL: QSALTQPASVSGSPGQSITISCTGTSSDVGGYKYVSWYQRHPGKAPKLMIYDVSNRPSGVSNRFSGSKSGNTASLTISGLQAEDEADYYCSSYTSSSTSVVFGGGTQLTVL

Target: SARS-CoV-2 receptor binding domain (RBD; residues 331–524) (SARS-CoV-2, early isolate (GenBank …, UniProt P0DTC2)
Assay: BLI

**Q.** Does B1 bind?
**A.** binds

**Q.** Does B2 bind?
**A.** binds

**Q.** Does B3 bind?
**A.** binds

**Q.** Does B4 bind?
**A.** binds

**Q.** Does B5 bind?
**A.** binds
